Patent US8754034B2, “Structure-based design of peptide inhibitors of amyloid fibrillation” (The Regents of the University of California, priority 2009, dated 2014)
Entries after “also recorded” stand apart in the source; their conditions may differ. Where no end group is shown, it is not given here. [ ]: non-standard residue; d: D form.

Assays:
[1] = molecular target: T1, tau K12 (Homo sapiens, UniProt P10636); assay: Fibril formation inhibition assay of tau K12 monitored by ThS fluorescence; format: biochemical; conditions: for effect on K12 fibrillation, comparison between peptides: ThS fluorescence, ratio not given (FIG. 4); for effect on tau K12 fibrillation (ThS fluorescence): peptide at equimolar ratio with K12; for ratio (concentration) dependence of the delay of K12 fibrillation (lag time): various molar ratios of peptide to K12 (FIGS. 5, 6); for average lag time of K12 fibrillation: peptide at equimolar ratio with K12 (FIG. 10b)
T1 construct: starting Met residue (added initiator methionine before Q244) (N); made in house; host or cells: E. coli BL21 (DE3), vector pNG2 (pET-3b derivative)
Description: 150 μL reactions containing 50 or 100 μM tau K12, as determined by the micro BCA Protein Assay Kit (Pierce), were incubated in 250 mM sodium phosphate buffer pH 7.4 with 1 mM DTT, 3 μM heparin, and 10 μM ThS (Friedhoff et al., 1998; Perez et al., 1996; Schweers et al., 1995). Peptides were dissolved in 250 mM sodium phosphate buffer pH 7.4 and added at various molar ratios to the reaction mixtures. The fluorescence signal was measured every 15 minutes with excitation and emission wavelengths of 440 and 510 nm, respectively, at 37° C. with continuous shaking at 900 rpm with a diameter of 1 mm in a Varioskan plate reader (Thermo Fisher Scientific, Inc.). Reactions were split into a minimum of 3 replicates in Nunc optically clear bottom, 96-well black plates, sealed with Corning pressure seal tape and monitored for various times. Each experiment was repeated a minimum of four times yielding the same results.

[2] = molecular target: amyloid β protein (Homo sapiens, UniProt P05067); assay: Amyloid beta fibrillation monitored by thioflavin T fluorescence; format: biochemical; conditions: thioflavin T fluorescence (FIG. 4b)
Excerpt: In FIG. 4(b), fibril formation of amyloid beta (abeta) protein is not delayed by addition of D-TLKIVW. Tau K12 fibrillation is monitored by ThS fluorescence and amyloid beta fibrillation is monitored by thioflavin T fluorescence.

[3] = molecular target: T1, tau K12; assay: Electron microscopy of tau K12 fibril formation in the presence of peptides; format: biochemical; conditions: K12 incubated with peptide, with or without ThS
Description: 5 μL of sample were applied to glow discharged 400 mesh carbon-coated formar films on copper grids (Ted Pella, Inc.) for three minutes. Grids were rinsed twice with distilled water and stained with 1% uranyl acetate for 90 seconds. Grids were examined in a Hitachi H-7000 transmission electron microscope at 75 kEv.

[4] = molecular target: tau K12 construct (UniProt P10636-8 244-274; P10636-8 306-394, limits assumed); assay: cell-based or functional assay
Sequence of tau K12 construct (P10636 other isoform, or with tags, fused parts or gaps limits assumed): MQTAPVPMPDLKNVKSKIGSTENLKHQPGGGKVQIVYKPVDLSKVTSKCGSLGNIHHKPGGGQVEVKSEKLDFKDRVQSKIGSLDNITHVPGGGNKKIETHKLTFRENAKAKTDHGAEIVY

T1 sequence (P10636 186-305 isoform P10636-2): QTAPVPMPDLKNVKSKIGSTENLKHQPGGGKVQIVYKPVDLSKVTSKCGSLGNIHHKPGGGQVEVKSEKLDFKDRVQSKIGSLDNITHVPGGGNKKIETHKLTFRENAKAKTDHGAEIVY
Sequence of amyloid β protein (P05067 672-713 limits assumed): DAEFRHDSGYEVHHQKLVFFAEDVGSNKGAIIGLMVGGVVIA

## D-DYYFEF ([dD][dY][dY][dF][dE][dF]) [D-amino acid peptide designed to pack against the bottom of the VQIVYK atomic structure]
[1]
  effect on K12 fibrillation, comparison between peptides: improved capping over D-DYYFEK
  effect on tau K12 fibrillation (ThS fluorescence): no inhibition
  ratio (concentration) dependence of the delay of K12 fibrillation (lag time): delayed K12 fibrillation in a concentration dependent manner; also recorded: some effect at delaying fibrillation

## D-DYYFEK ([dD][dY][dY][dF][dE][dK])
[1]
  effect on tau K12 fibrillation (ThS fluorescence): all peptides except D-DYYFEK systematically delayed fibrillation

## D-GVIGIA (G[dV][dI]G[dI][dA]) [D-amino acid control peptide, a stereoisomer of an L-amino acid peptide known to aggregate on its own, reference compound]
[1]
  effect on tau K12 fibrillation (ThS fluorescence): no effect on fibrillation; also recorded: without any effect on fibrillation

## D-LKTWIV ([dL][dK][dT][dW][dI][dV]) [scrambled peptide of D-TLKIVW, reference compound]
[1]
  effect on K12 fibrillation, comparison between peptides: does not delay the onset of K12 fibrillation

## D-TIKWVL ([dT][dI][dK][dW][dV][dL]) [scrambled peptide of D-TLKIVW, order of residues scrambled in one face]
[1]
  effect on K12 fibrillation, comparison between peptides: does not delay the onset of K12 fibrillation
  effect on tau K12 fibrillation (ThS fluorescence): some inhibitory effect; also recorded: not nearly as effective as D-TLKIVW

## D-TIWKVL ([dT][dI][dW][dK][dV][dL]) [scrambled peptide of D-TLKIVW, reference compound]
[1]
  effect on K12 fibrillation, comparison between peptides: does not delay the onset of K12 fibrillation

## D-TLKIVW ([dT][dL][dK][dI][dV][dW]) [D-amino acid peptide designed to pack against the top of the VQIVYK fibril-like structure of tau]
[2]
  effect on fibril formation of amyloid beta protein: no effect on fibrillation; also recorded: not delayed
[1]
  molar ratio of peptide relative to tau K12 at which a marginal effect on delay of fibrillation was observed: 50 fold less peptide relative to tau K12 concentration
  effect on K12 fibrillation, comparison between peptides: the most effective peptide; also recorded: delays fibrillation relative to K12 alone
  effect on tau K12 fibrillation (ThS fluorescence): inhibition for several days
  average lag time of K12 fibrillation: over 140 hours
  ratio (concentration) dependence of the delay of K12 fibrillation (lag time): delayed longer by higher concentrations of the D-peptide
[1]; 50 μM K12, peptide at 2-fold and 5-fold excess, some of the samples
  time without ThS signal: > 300 h
[1]; 2-fold or 5-fold excess peptide, some experiment replicates
  time without fibril formation: more than 2 weeks
[1]; listed as D-amino acid peptide TLKIVW
  effect on tau K12 fibrillation (ThS fluorescence): prevents the formation of K12fibrils
[3]
  fibril formation of K12 seen by electron microscopy: there were no fibrils; also recorded: prevents fibril formation; also recorded: fibrils do not form

## D-TWKLVL ([dT][dW][dK][dL][dV][dL]) [D-amino acid peptide designed to pack against the top of the VQIVYK fibril structure]
[1]
  molar ratio of peptide relative to tau K12 at which a marginal effect on delay of fibrillation was observed: 10 fold less peptide relative to tau K12 concentration
  ratio (concentration) dependence of the delay of K12 fibrillation (lag time): still were inhibiting fibrillation of K12
[1]; 5-fold excess peptide
  duration of effective inhibition of K12 fibrillation: about 1 week
[1]; ThS fluorescence (FIGS. 5, 6)
  peptide concentration relative to K12 at which an inhibitory effect is still seen: 10 % the molar concentration of K12
[1]; peptide at equimolar ratio with K12 (FIG. 3a)
  delay of K12 fibrillation: more than 30 hours
[3]
  fibril formation of K12 seen by electron microscopy: Fibrils do not form
[3]; listed as DTWKLVL
  fibril formation of K12 seen by electron microscopy: there were no fibrils

## D-YVIIER ([dY][dV][dI][dI][dE][dR]) [D-amino acid peptide designed to pack against the bottom of the VQIVYK fibril structure]
[1]
  effect on tau K12 fibrillation (ThS fluorescence): some delay
  ratio (concentration) dependence of the delay of K12 fibrillation (lag time): delayed K12 fibrillation in a concentration dependent manner; also recorded: clear ratio dependence

## L-TLKIVW (SEQ ID NO: 3) [L-amino acid enantiomer of D-TLKIVW]
[1]
  effect on K12 fibrillation, comparison between peptides: able to inhibit fibril formation, but not nearly as long as D-TLKIVW
  effect on tau K12 fibrillation (ThS fluorescence): able to inhibit fibril formation, but not nearly as long as D-TLKIVW; also recorded: not nearly as effective as D-TLKIVW
  average lag time of K12 fibrillation: about 40 hours

## L-VQIVYK (SEQ ID NO: 1) [steric zipper segment of tau, used as control peptide, reference compound]
[1]
  effect on tau K12 fibrillation (ThS fluorescence): no significant effect on fibrillation
[1]; listed as VQIVYK
  effect on tau K12 fibrillation (ThS fluorescence): no effect at equimolar concentrations or in excess

## [dT][dW][dK][dL][dV][dL] (designed binder) [D-TWKLVL]
[4]
  delay of K12 fibrillation at equimolar ratio (ThS fluorescence): > 30 h
  duration of inhibition of K12 fibrillation at 5-fold excess peptide: ~1 week
  molar amount of peptide relative to tau K12 construct to delay fibrillation: 10 fold less peptide than K12

## [dT][dI][dK][dW][dV][dL] [D-TIKWVL]
[4]
  average lag time of K12 fibrillation (ThS fluorescence), equimolar ratio: 54 h

## [dT][dL][dK][dI][dV][dW] (designed binder) [D-TLKIVW]
[4]
  average lag time of K12 fibrillation (ThS fluorescence), equimolar ratio: > 140 h
  molar amount of peptide relative to tau K12 construct to delay fibrillation: 50 fold less peptide than K12
  time without K12 fibrils at 2-fold or 5-fold excess peptide: > 2 weeks
